Results as given in paper PMC6107515, “Factor H binding proteins protect division septa on encapsulated Streptococcus pneumoniae against complement C3b deposition and amplification” (Nature Communications, 2018).

What was measured:
[1] = molecular target: T1, human complement Factor H (human, UniProt P08603 19-1231); experiment: SPR; Biacore X100; FH coupled to a CM4 chip, recombinant PspCs injected at five increasing concentrations (kinetic titration); PBS-P+ buffer; fitted with a 1:1 binding model; conditions: both partners purified
T1 construct: complement factor H, human, purified; also called FH
T1 sequence (P08603 19-1231): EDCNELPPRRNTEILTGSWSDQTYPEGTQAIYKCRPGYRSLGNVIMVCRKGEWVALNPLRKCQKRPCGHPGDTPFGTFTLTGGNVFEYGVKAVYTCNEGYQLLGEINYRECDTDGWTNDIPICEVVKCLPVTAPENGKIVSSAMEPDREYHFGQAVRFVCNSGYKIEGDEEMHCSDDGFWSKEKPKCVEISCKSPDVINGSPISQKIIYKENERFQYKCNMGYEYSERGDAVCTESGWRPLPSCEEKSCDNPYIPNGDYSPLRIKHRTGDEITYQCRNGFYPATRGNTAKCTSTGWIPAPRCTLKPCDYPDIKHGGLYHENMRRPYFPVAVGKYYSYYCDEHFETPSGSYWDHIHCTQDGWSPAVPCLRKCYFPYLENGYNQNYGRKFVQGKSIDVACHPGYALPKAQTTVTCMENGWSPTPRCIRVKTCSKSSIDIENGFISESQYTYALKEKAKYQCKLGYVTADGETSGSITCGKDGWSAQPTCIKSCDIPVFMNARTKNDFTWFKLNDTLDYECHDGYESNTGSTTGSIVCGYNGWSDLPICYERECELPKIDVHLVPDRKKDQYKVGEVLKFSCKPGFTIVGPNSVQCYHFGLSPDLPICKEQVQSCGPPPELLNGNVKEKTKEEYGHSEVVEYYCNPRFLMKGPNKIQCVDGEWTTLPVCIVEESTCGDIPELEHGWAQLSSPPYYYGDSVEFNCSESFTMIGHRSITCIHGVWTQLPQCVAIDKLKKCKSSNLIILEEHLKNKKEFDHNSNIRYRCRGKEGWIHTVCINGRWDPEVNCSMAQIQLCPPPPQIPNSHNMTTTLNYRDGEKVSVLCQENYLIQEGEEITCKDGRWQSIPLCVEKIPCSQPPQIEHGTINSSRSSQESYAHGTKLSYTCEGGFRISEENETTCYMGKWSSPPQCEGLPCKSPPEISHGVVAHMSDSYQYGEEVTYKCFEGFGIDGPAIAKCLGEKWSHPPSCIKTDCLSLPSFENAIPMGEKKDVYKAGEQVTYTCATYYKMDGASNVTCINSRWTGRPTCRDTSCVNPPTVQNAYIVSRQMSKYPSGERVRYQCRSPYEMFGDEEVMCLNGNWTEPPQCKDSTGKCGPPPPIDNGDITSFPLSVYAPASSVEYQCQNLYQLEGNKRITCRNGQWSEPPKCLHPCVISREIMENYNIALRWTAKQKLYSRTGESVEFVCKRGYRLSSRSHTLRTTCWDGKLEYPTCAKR

[2] = molecular target: T1, human complement Factor H; experiment: as above; conditions: both partners purified; remark: listed apart in the source

Row | Binder | Kd [1] [nM] | koff [1] [s⁻¹] | kon [1] [M⁻¹ s⁻¹] | Kd [2] [nM]
1 | recombinant PspC1 (BHN418) (domain or fragment) EEVGGRNTPTVTSSGQDISKKYADEVESHLKKILSEIQTQLDRKRHTKTVALINELQDIKKTYLYNLNVLKEKSELPSKIKAKLEVAFDQFKKDTLKPGEKVAEAEKKVAEAKKKAEDQKEEDRRNYPTNTYKTLELEIAESDVKVKEAELELVNEEAKPGNEEKIKKAKAKVESEKAEAIRLEEIKTDREEAKRKADAKLKEAVENNAATSEQGEPKRRVKRGVLGEPATPDKKENDAKSSDSSVGEETLPSPSLKPEKKVAEAEKKAKDQKEEDRRNYPTNTYKTLELEIAESDVKVKEAELELVKEEAKESRNEEKVKQAKAKVESKKAEATRLEKIKTDRKKAEEAKRKAAEEDKVKEKPAEQPQPAPAPQPEKPAPKPEKPAPAPKPENPAEQPKAEKPADQQAEEDYARRSEEEYNRLTQQQPPKTEKPAQPSTPKTGWKQENGMWYFYNTDGSMA | 0.09 | 6.2e-05 | 690000 | 0.0908
2 | recombinant PspC2 (BHN418) (domain or fragment, PspC2 of Streptococcus pneumoniae BHN418, lacking the LPxTG motif and the first 37 aa (signal peptide); whole precursor given in Supplementary Data 1; cloned NdeI/XhoI in pET28a; source: E. coli Rosetta (DE3), purified (Ni-NTA, thrombin, Ni-NTA, Superdex 75); not shown: 6xHis, N-terminal, cleaved) TEKEGSTQAATSFNRGNGSQAEQRGELDLERDKAMKAVSEYVGKMVRDAYVKSDRKRHKNTVALVNQLGNIKNRYLNEIVHSTSKSQLQELMMKSQSEVDEAVSKFEKDSFSSSSSGSSTKPETPQPENPEHQKPTTPSPDTKPSPQPEGKKPSVPDINQEKEKAKLAVVTYMSKILDDIQKHHLQKEKHRQIVALIKELDELKKQALSEIDNVNTKVEIENTVHKIFADMDAVVTKFKKGLTQDTPKEPGNKKPSAPKPGMQPSPQPEVKPQLEKPKPEVKPQPEKPKPEVKPQPEKPKPEVKPQPEKPKPEVKPQPEKPKPEVKPQPEKPKPEVKPQPEKPKPEVKPQPEKPKPEVKPQPEKPKPEVKPQPEKPKPEVKPQPEKPKPEVKPQPEKPKPEVKPQPEKPKPEVKPQPEKPKPEVKPQPEKPKPEVKPQPEKPKPEVKPQPEKPKPEVKPQPEKPKPEVKPQPEKPKPEVKPQPEKPKPDNSKPQADDKKPSTTNNLSKDKQPSNQASTNEKATNKPKK | 0.013 | 5.5e-05 | 4.1e+06 | 
